{"source": "patent US20020164738", "proteins": {"B1": {"name": "pro-caspase-12 (48 kDa) synthesized in vitro, radioactively labeled (protein)", "chain": "MAARRTHERDPIYKIKGLAKDMLDGVFDDLVEKNVLNGDELLKIGESASFILNKAENLVENFLEKTDMAGKIFAGHIANSQEQLSLQFSNDEDDGPQKICTPSSPSESKRKVEDDEMEVNAGLAHESHLMLTAPHGLQSSEVQDTLKLCPRDQFCKIKTERAKEIYPVMEKEGRTRLALIICNKKFDYLFDRDNADTDILNMQELLENLGYSVVLKENLTAQEMETELMQFAGRPEHQSSDSTFLVFMSHGILEGICGVKHRNKKPDVLHDDTIFKIFNNSNCRSLRNKPKILIMQACRGRYNGTIWVSTNKGIATADTDEERVLSCKWNNSITKAHVETDFIAFKSSTPHNISWKVGKTGSLFISKLIDCFKKYCWCYHLEEIFRKVQHSFEVPGELTQMPTIERVSMTRYFYLFPGN"}}, "target": "T1, MAGE-3 protein purified from E. coli (pNB202, pRSET-A, N-terminal His tag)", "T1 chain": "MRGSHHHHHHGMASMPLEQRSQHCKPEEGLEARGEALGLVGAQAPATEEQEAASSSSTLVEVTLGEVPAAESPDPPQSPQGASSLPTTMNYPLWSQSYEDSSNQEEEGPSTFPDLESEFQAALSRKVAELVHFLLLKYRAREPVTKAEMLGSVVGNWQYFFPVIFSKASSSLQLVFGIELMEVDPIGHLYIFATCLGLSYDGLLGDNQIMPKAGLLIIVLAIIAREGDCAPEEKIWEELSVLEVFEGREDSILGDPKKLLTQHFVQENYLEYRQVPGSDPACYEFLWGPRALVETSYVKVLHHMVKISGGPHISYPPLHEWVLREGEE", "data": [{"protein": "B1", "values": [{"measurement": "cleavage of radioactively labeled pro-caspase-12 by mature caspase-12 (SDS-PAGE, autoradiography)", "value": "Addition of 12 µg of MAGE-3 inhibited the cleavage reaction by caspase-12 almost completely"}]}]}
